Test results as given in article doi:10.1101/2025.11.16.688685.

Legend:
hRNMT 1-185 [1] = target: T1, hRNMT 1-185 (Homo sapiens, UniProt O43148 1-185); assay: EMSA
hRNMT WT [2] = target: T2, hRNMT WT (Homo sapiens, UniProt O43148 1-476); assay: EMSA
hRNMT 120-476 [3] = target: T3, hRNMT 120-476 (Homo sapiens, UniProt O43148 120-476); assay: EMSA
hRNMT WT;RAM 1-90 = hRNMT WT;RAM 1-90 (Homo sapiens;Homo sapiens?, UniProt O43148;Q9BTL3 1-476;1-90, |); assay: EMSA
hRNMT WT [4] = target: T2, hRNMT WT; assay: pull-down
hRNMT 120-476 [5] = target: T3, hRNMT 120-476; assay: pull-down
hRNMT 1-185 [6] = target: T1, hRNMT 1-185; assay: pull-down

Measured: binding result

T3 sequence (O43148 120-476): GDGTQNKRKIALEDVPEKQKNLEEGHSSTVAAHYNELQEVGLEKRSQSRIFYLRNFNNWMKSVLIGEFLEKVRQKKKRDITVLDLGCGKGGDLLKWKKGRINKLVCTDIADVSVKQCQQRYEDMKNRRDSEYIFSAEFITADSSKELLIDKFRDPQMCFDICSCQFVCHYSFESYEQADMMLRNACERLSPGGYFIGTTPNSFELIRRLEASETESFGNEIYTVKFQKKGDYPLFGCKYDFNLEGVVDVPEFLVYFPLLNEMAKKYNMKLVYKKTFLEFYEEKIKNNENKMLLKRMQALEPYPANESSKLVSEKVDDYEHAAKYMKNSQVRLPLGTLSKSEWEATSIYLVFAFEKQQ
T2 sequence (O43148 whole entry): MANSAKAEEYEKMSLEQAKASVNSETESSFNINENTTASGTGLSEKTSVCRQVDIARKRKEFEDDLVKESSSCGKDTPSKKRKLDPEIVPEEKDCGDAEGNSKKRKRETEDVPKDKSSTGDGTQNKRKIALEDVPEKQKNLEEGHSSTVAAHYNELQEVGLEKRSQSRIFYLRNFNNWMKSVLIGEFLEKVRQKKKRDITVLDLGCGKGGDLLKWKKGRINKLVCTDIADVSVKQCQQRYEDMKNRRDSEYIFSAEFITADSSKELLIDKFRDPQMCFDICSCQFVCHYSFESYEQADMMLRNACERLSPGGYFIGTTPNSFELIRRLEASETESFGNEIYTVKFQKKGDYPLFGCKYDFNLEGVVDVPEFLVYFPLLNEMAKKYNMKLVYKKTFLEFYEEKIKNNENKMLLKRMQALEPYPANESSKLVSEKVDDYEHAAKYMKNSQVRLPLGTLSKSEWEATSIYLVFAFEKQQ
hRNMT WT;RAM 1-90, sequence (O43148 whole entry, chain 1 of 2): as the sequence (O43148 whole entry) above
hRNMT WT;RAM 1-90, sequence (Q9BTL3 1-90, chain 2 of 2): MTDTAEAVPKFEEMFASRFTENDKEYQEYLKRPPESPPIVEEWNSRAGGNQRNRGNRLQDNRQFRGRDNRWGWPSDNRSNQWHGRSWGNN
T1 sequence (O43148 1-185): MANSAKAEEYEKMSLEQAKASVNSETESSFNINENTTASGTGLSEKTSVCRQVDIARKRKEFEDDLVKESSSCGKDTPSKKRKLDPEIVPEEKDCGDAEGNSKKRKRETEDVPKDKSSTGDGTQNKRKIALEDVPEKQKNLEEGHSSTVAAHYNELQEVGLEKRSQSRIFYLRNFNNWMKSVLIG

B1: pGEM rG4 RNA (structured_RNA)
RNA: GGGCGAAUUGGGCCCGACGUCGCAUGUGUGGGAGGGGGCGGGUGUGGGUGCGAA
binds: hRNMT 1-185 [1] | hRNMT WT [2] | hRNMT 120-476 [3] | hRNMT WT;RAM 1-90

B2: pGEM RNA (ssRNA)
RNA: GGGCGAAUUGGGCCCGACGUCGCAUGCUCCCGGCCGCCAUGGCGGCCGCGGGAA
binds: hRNMT 120-476 [3] | hRNMT WT;RAM 1-90

B3: NRAS rG4 (structured_RNA)
RNA: UGUGGGAGGGGCGGGUGUGGGUGC
binds: hRNMT WT [4] | hRNMT 120-476 [5] | hRNMT 1-185 [6]
